Assay results taken from patent US20030017170A1 (BURNHAM INSTITUTE, published 2003).
One block for each binder: values may come before it. Positions of bridges follow the written chain, without caps; N, C: chain ends. No end group written: not given here.

Assays:
[1] = target: E-selectin:IgG chimera (UniProt P16581 22-301); experiment: competition ELISA: inhibition of sLe^x-PAA-biotin binding to coated E-selectin:IgG
[2] = target: E-selectin:IgG chimera (UniProt P16581); experiment: as above
E-selectin:IgG chimera (UniProt P16581), sequence (P16581 22-301, change not shown): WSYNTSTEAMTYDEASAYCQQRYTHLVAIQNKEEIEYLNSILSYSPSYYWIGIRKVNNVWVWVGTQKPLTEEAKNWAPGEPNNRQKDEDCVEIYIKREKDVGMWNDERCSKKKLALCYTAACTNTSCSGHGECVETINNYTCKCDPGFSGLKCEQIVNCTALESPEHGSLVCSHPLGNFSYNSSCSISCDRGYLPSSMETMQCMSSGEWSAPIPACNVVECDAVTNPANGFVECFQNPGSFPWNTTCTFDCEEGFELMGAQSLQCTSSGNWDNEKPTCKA

E-selectin:IgG chimera (UniProt P16581 22-301), sequence (P16581 22-301, change not shown): as above

IC50 [1]: 100 µM
B1: synthetic cyclic CIELLQARC (SEQ ID NO:13) peptide (peptide)
peptide: CIELLQARC
modifications: disulfide 1-9 (inferred)
notes: Synthetic peptide cyclised by a disulfide bond; also called cyclic heptapeptide

IC50 [2]: 200 µM
B2: synthetic linear IELLQAR (SEQ ID NO:7) peptide (peptide)
peptide: IELLQAR

IC50 [2]: 10 µM
B3: IELLQAR (SEQ ID NO:7) multivalent (Fmoc eight branch) peptide (peptide)
peptide: IELLQAR
modifications: also: eight copies on branched MAPS core
